# Tests used:
# SmAChE1 = molecular target: T1, SmAChE1 (Schistosoma mansoni, UniProt Q71SU7); assay: Ellman assay, inhibition of AcSCh hydrolysis; type: biochemical; conditions: AcSCh 2 mM; 20 min preincubation at RT; pH 7.4; organophosphate
# T1 construct: full length minus signal peptide, C-terminal 6-His tag (pPICZalphaA), secreted from Pichia pastoris X-33, IMAC purified; synthetic ORF
# SmAChE2 = molecular target: T2, SmAChE2 (Schistosoma mansoni, UniProt A0A3Q0KMM5); assay: Ellman assay, inhibition of AcSCh hydrolysis; type: biochemical; conditions: AcSCh 2 mM; 20 min preincubation at RT; pH 7.4; organophosphate
# T2 construct: full length minus signal peptide, C-terminal 6-His tag (pPICZalphaA), secreted from Pichia pastoris X-33, IMAC purified; synthetic ORF
# T2 sequence (A0A3Q0KMM5 entry or part of it): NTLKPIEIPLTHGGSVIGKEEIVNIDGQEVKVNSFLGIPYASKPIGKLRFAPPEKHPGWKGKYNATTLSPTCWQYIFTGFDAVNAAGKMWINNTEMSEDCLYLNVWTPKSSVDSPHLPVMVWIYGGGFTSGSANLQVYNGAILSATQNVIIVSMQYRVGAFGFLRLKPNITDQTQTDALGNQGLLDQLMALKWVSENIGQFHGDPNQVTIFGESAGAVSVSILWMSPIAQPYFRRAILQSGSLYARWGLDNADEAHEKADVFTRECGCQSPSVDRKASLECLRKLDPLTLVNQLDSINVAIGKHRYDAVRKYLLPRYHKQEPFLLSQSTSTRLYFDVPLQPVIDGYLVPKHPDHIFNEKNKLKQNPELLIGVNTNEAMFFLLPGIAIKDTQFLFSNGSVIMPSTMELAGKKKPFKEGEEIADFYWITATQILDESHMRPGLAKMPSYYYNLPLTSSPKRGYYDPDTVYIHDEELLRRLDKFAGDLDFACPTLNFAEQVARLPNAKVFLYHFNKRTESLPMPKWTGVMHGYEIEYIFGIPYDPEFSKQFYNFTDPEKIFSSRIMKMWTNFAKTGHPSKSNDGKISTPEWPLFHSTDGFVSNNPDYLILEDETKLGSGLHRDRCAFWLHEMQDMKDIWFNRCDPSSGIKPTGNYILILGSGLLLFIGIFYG
# SmBChE1 [1] = molecular target: T3, SmBChE1 (Schistosoma mansoni, UniProt A0A3Q0KKW0); assay: Ellman assay, inhibition of BcSCh hydrolysis; type: biochemical; conditions: BcSCh 2 mM; 20 min preincubation at RT; pH 7.4; organophosphate
# T3 construct: full length minus signal peptide, C-terminal 6-His tag (pPICZalphaA), secreted from Pichia pastoris X-33, IMAC purified; synthetic ORF
# T3 sequence (A0A3Q0KKW0 entry or part of it): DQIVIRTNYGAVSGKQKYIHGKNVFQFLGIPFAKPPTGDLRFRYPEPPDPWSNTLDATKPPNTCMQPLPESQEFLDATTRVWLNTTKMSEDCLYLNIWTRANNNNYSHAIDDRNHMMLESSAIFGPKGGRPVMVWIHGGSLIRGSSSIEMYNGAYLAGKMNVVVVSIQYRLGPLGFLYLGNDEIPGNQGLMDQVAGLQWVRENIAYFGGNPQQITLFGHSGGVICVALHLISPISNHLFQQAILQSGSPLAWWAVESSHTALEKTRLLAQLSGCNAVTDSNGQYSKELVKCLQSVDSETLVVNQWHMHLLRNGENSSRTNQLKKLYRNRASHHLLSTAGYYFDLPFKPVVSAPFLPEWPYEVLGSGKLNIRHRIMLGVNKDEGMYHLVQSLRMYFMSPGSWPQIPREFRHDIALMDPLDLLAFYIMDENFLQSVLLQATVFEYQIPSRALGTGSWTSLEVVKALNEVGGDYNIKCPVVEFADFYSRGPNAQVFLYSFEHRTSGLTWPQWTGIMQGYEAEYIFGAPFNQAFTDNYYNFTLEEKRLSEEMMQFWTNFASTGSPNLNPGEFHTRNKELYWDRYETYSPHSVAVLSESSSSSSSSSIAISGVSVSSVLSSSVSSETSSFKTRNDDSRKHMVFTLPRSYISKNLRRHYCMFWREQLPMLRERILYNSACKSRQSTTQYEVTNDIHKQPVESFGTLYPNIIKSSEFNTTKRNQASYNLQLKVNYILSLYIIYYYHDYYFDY
# SmBChE1 [2] = molecular target: T3, SmBChE1; assay: Ellman assay, inhibition of BcSCh hydrolysis; type: biochemical; conditions: BcSCh 2 mM; 20 min preincubation at RT; pH 7.4
# CC(=O)SCC[N+](C)(C)C = assay: purified protein; type: biochemical, Schistosoma mansoni; conditions: 0.1 M sodium phosphate, pH 7.4, 0.5 mM DTNB
# CCCC(=O)SCC[N+](C)(C)C = assay: purified protein; type: biochemical, Schistosoma mansoni; conditions: 0.1 M sodium phosphate, pH 7.4, 0.5 mM DTNB
# T1 sequence (Q71SU7 entry or part of it): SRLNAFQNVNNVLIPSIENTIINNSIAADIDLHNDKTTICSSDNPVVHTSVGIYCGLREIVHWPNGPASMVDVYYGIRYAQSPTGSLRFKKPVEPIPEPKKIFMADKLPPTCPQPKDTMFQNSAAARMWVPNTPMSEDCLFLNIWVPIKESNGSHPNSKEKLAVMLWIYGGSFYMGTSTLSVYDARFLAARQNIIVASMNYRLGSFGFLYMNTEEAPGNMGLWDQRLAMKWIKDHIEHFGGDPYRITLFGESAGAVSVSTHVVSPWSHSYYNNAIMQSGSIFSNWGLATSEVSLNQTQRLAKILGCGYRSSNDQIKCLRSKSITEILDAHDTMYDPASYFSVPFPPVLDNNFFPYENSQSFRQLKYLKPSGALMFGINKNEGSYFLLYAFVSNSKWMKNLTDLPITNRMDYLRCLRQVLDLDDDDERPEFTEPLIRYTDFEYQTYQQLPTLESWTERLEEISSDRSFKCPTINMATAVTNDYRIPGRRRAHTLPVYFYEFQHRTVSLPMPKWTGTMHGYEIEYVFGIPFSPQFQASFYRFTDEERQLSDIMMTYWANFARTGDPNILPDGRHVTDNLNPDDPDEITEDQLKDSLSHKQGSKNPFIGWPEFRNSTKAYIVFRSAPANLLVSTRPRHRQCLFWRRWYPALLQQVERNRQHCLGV
compound,measurement,setting,value
"COP(=O)(OC)OC=C(Cl)Cl [DDVP, 2,2-dichlorovinyl dimethyl phosphate]",inhibition at 1 μM,SmAChE1,preferred substrate activity of both SmAChE1 and SmAChE2 was inhibited by DDVP
same,inhibition at 1 μM,SmAChE2,preferred substrate activity of both SmAChE1 and SmAChE2 was inhibited by DDVP
same,"inhibition at 1, 5 and 10 μM",SmBChE1 [1],BChE activity of schistosome extracts and recombinant SmBChE1 significantly decreased in the presence of
CC(C)NP(=O)(NC(C)C)OP(=O)(NC(C)C)NC(C)C [iso-OMPA],inhibition at 1 mM,SmBChE1 [2],"iso-OMPA, a specific inhibitor of BChE, only inhibited SmBChE1 activity"
SmAChE1 (Schistosoma mansoni),Km,CC(=O)SCC[N+](C)(C)C,5.83 ± 1.62 mM
same,Vmax,CC(=O)SCC[N+](C)(C)C,0.00557 µmol/min/mg
SmAChE2 (Schistosoma mansoni),Km,CC(=O)SCC[N+](C)(C)C,10.87 ± 6.17 mM
same,Vmax,CC(=O)SCC[N+](C)(C)C,0.00559 µmol/min/mg
SmBChE1 (Schistosoma mansoni),Km,CCCC(=O)SCC[N+](C)(C)C,34.38 ± 12.71 mM
same,Vmax,CCCC(=O)SCC[N+](C)(C)C,0.0017 ± 9e-05 µmol/min/mg

# — publication PMC6919630, “Novel cholinesterase paralogs of Schistosoma mansoni have perceived roles in cholinergic signalling and drug detoxification and are essential for parasite survival” (PLoS Pathogens, 2019)
